Assay results from patent publication US8465945B2, “Method for production and use of mite group 1 proteins” (Merck Patent GmbH, priority 1999, dated 2013).

Columns and labels:
[1] = tested on: anti-Der f 1 MAb 6A8 (capture) and anti-Der f 1 MAb 4C1 (detection); test: Monoclonal Capture ELISA; format: binding
Description: (§1) Assays were carried out as follows. A microtiter plate as described in Example 5 was coated overnight at 4° C. with 100 ng/well of anti-Der f 1 protein monoclonal antibody 6A8, denoted herein as anti-Der f 1 MAb 6A8, provided by Dr. Martin Chapman. The plate was washed in the manner described above. The following proteins were then added to wells, having been diluted in Assay Buffer in a 2-fold dilution series, from 0.75 to 50 ng/well: Heska native Derf1, P. pastoris-expressed PDerf1303b, and E. coli-expressed PDerf1303c. After incubation for 1 hour at room temperature, plates were washed as described in Example 5. Then 100 μl per well of a 1:1000 dilution in Assay Buffer of biotinylated anti-Der f 1 monoclonal antibody 4C1, also denoted anti-Der f 1 MAb 4C1, provided by Dr. Martin Chapman, was added for 1 hour at room temperature. Plates were washed, streptavidin-HRP conjugate was added, and plates were developed as described in Example 5.

[2] = tested on: IgE from pooled mite-allergic human sera; test: Monoclonal Capture ELISA (Example 8B, Table 7); format: binding
Description: as §1
B. The Der f 1 proteins described in Example 8B were reacted as described in Example 6 with a pool of serum samples collected from 16 mite-allergic human patients.

[3] = tested on: IgE from mite-allergic dog sera; test: ELISA, binding of IgE from dog sera to coated Der f 1 proteins or mite extracts, detected with FcεR1α-biotin
[4] = Cysteine protease activity, cleavage of quenched fluorogenic substrate; format: biochemical; conditions: for Emission (w/o E-64): 50 μM substrate, 2 hours, excitation 380 nm, emission 460 nm; for Emission (w/E-64): pre-incubated 30 minutes with E-64 1 μg/ml
Description: Native Der f 1 is believed to be a cysteine protease, based on homology to papain; see, for example, Chua et al, 1992, J Exp Med 167, 175-182. The Der f 1 protein secreted as a mature form by recombinant cell P. pastoris HCY215 (i.e., P. pastoris strain X33 transformed with plasmid pBC128 containing nucleic acid molecule nDerf1909b (coding strand of SEQ ID NO:28) which encodes the pro-form of Der f 1 (amino acid sequence SEQ ID NO:29)) was tested for cysteine protease activity in the following manner. Three concentrations of protein were tested for their abilities to cleave an artificial substrate in the presence or absence of a cysteine protease inhibitor. Specifically, three pairs of samples containing 0.56 μg, 1.1 μg, or 5.6 μg of P. pastoris-expressed Der f 1 protein, respectively, were incubated for 30 minutes at room temperature in 20 μl of 50 mM Tris-HCl, pH 8. One member of each pair also contained the irreversible cysteine protease inhibitor E-64 at a concentration of 1 μg/ml. After the pre-incubation, 100 μl of 50 μM quenched fluorogenic substrate z-Val-Leu-Arg-AMC (available from Enzyme Systems Products, Livermore, Calif.) was added to all six samples, and the samples were incubated for 2 hours at room temperature. Fluorescence was measured using a Perkin Elmer Luminescence Spectrometer (model #LS50B) at an excitation wavelength of 380nm and an emission wavelength of 460 nm.

B1: PDerf1303b: Recombinant Der f 1 expressed by P. pastoris HCY215 from nDerf1909b (pro-form, SEQ ID NO:29); actually secreted as mature form (protein, listed as Dermatophagoides farinae)
chain: RPASIKTFEEFKKAFNKNYATVEEEEVARKNFLESLKYVEANKGAINHLSDLSLDEFKNRYLMSAEAFEQLKTQFDLNAETSACRINSVNVPSELDLRSLRTVTPIRMQGGCGSCWAFSGVAATESAYLAYRNTSLDLSEQELVDCASQHGCHGDTIPRGIEYIQQNGVVEERSYPYVAREQRCRRPNSQHYGISNYCQIYPPDVKQIREALTQTHTAIAVIIGIKDLRAFQHYDGRTIIQHDNGYQPNYHAVNIVGYGSTQGDDYWIVRNSWDTTWGDSGYGYFQAGNNLMMIEQYPYVVIM
OD, protein captured by MAb 6A8 and detected by MAb 4C1 ([1]; 0.75 ng protein per well): 405 OD | OD, protein captured by MAb 6A8 and detected by MAb 4C1 ([1]; 1.5 ng protein per well): 916 OD | OD, protein captured by MAb 6A8 and detected by MAb 4C1 ([1]; 2.5 ng protein per well): 2088 OD | OD, protein captured by MAb 6A8 and detected by MAb 4C1 ([1]; 3.1 ng protein per well): 1544 OD | OD, protein captured by MAb 6A8 and detected by MAb 4C1 ([1]; 6.25 ng protein per well): 1961 OD | OD, protein captured by MAb 6A8 and detected by MAb 4C1 ([1]; 25 ng protein per well): 2156 OD | OD, protein captured by MAb 6A8 and detected by MAb 4C1 ([1]; 50 ng protein per well): 2148 OD | OD, Monoclonal Capture ELISA ([2]; 0.39 ng protein per well): 434 OD | OD, Monoclonal Capture ELISA ([2]; 0.78 ng protein per well): 871 OD | OD, Monoclonal Capture ELISA ([2]; 1.55 ng protein per well): 1399 OD | OD, Monoclonal Capture ELISA ([2]; 3.1 ng protein per well): 2103 OD | OD, Monoclonal Capture ELISA ([2]; 6.25 ng protein per well): 2463 OD | OD, Monoclonal Capture ELISA ([2]; 12.5 ng protein per well): 2388 OD | OD, Monoclonal Capture ELISA ([2]; 25 ng protein per well): 2389 OD | OD, bound IgE ([3]; Assay Number 1, serum dog pool): 364 OD multiplied by 1000 | OD, bound IgE ([3]; Assay Number 1, serum dog-1): 21 OD multiplied by 1000 | OD, bound IgE ([3]; Assay Number 1, serum dog-2): 1490 OD multiplied by 1000 | OD, bound IgE ([3]; Assay Number 1, serum dog-3): 2499 OD multiplied by 1000 | OD, bound IgE ([3]; Assay Number 2, dog sera pool A 146): 199 OD multiplied by 1000 | OD, bound IgE ([3]; Assay Number 2, dog sera pool KS338): 27 OD multiplied by 1000 | reactivity: share of dog serum samples reactive to native Der f 1 proteins that are also reactive to the recombinant protein ([3]; Table 1, 3 dog serum samples): 100% | Emission (w/o E-64) ([4]; 0.56 micrograms rDer f 1): 0.861 | Emission (w/E-64) ([4]; 0.56 micrograms rDer f 1): 0.302 | Emission (w/o E-64) ([4]; 1.1 micrograms rDer f 1): 1.693 | Emission (w/E-64) ([4]; 1.1 micrograms rDer f 1): 0.765 | Emission (w/o E-64) ([4]; 5.6 micrograms rDer f 1): 9.671 | Emission (w/E-64) ([4]; 5.6 micrograms rDer f 1): 2.369 | cysteine protease activity ([4]; can be inhibited by pre-incubation with E-64): exhibits cysteine protease activity
